From article PMC9927398

T1: CRP WT (CRPMtb) (Mycobacterium tuberculosis (strain for …, UniProt P9WMH3 1-224))
T1 sequence: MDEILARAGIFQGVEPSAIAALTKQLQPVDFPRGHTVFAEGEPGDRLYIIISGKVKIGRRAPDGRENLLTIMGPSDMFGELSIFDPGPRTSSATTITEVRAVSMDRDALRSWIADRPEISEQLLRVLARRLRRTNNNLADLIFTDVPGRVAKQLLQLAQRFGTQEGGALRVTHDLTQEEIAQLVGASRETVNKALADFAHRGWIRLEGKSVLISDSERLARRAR


Assays:
CRP WT (CRPMtb) [1] = target: T1, CRP WT (CRPMtb); assay: competition; details: protein: recombinant; tags: His tag (Ni2+ purified; pET28a); chain copies: 2; blunt
CRP WT (CRPMtb) [2] = target: T1, CRP WT (CRPMtb); assay: EMSA; no cAMP; 5 and 15 uM protein; details: protein: recombinant; tags: His tag (Ni2+ purified; pET28a); chain copies: 2; blunt

| Binder | binding result (CRP WT (CRPMtb) [1]) | binding result (CRP WT (CRPMtb) [2]) |
| --- | --- | --- |
| 2D3 unlabeled competitor (dsDNA) DNA 1: CTCTATGTGACGAAGCCCACATCGAC DNA 2: GTCGATGTGGGCTTCGTCACATAGAG | binds | – |
| 2D3 (dsDNA) DNA 1: CTCTATGTGACGAAGCCCACATCGAC DNA 2: GTCGATGTGGGCTTCGTCACATAGAG | – | binds |
